Experimental data published in patent publication US20250066499A1 (SUNSHINE GUOJIAN PHARMACEUTICAL SHANGHAI, published 2025).
Positions count from the first letter of the chain named.

Assays:
CD73-CD-his = target: T1, CD73-CD-his (human, UniProt P21589 337-549); experiment: ELISA as in Example 3, antigen CD73-CD-his, antibody titrated, absorbance 450 nm
T1 construct: it fits residue S549 of P21589 (27+522)
T1 sequence: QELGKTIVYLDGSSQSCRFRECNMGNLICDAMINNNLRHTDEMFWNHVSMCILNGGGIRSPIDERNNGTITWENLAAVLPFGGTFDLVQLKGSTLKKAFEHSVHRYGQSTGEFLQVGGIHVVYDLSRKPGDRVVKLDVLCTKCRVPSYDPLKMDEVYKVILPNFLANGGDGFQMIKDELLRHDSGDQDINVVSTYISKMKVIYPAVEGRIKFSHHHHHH

CD73-ND-Y135A = target: T2, CD73-ND-Y135A (human, UniProt P21589 27-317); experiment: ELISA, high plateau value (OD 450 nm)
T2 construct: Alanine mutant of CD73-ND
T2 sequence: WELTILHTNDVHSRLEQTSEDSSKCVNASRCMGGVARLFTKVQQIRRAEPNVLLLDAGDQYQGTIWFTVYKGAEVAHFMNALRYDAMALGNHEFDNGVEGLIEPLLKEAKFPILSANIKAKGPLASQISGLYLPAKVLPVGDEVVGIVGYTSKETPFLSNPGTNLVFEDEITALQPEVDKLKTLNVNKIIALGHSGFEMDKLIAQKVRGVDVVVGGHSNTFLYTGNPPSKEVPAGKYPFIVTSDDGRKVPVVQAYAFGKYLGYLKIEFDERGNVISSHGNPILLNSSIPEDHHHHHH
Method: (§1) The ELISA plates were coated with SA protein diluted to 1.5 μg/mL in coating buffer (50 mM carbonate coating buffer, pH 9.6) and incubated overnight at 4° C. The supernatant was discarded, and the plates were washed three times with PBST. Then, 5% skimmed milk powder prepared with PBS was added for blocking and the plates were incubated for 2 h at 37° C. After washing the plates once with PBST, CD73-biotin protein (prepared by biotinylating CD73-His protein according to the EZ-Link NHS-Biotin Reagent instructions) was diluted to 0.5 μg/mL and added at 100 μL/well for incubation at room temperature for 1 h. The plates were washed three times with PBST, and the prepared murine-derived monoclonal antibodies against human CD73 were serially diluted with 1% BSA buffer prepared with PBST and added to the ELISA plates at 100 μl/well. The plates were incubated at 37° C. for 1 h. After washing the plates three times with PBST, HRP-labeled goat anti-mouse IgG secondary antibody was added and the plates were incubated for 30 min at 37° C. After washing the plates three times with PBST, the residual droplets were patted dry on absorbent paper as much as possible. Then, 100 μl of TMB color developing solution was added to each well, and the plates were incubated in the dark at room temperature for 5 min for color development. Subsequently, 50 μl of 2M H₂SO₄ stop solution was added to each well to terminate the substrate reaction. The OD values were read at 450 nm using a multimode microplate reader to analyze the binding ability of the tested antibodies to the target antigen human CD73-His.
(§2) Referring to the experimental method in Example 3, the affinity of 48A11-HuV33 for various mutant proteins of CD73-ND was determined. The SA protein was diluted to 1 μg/mL for coating the ELISA plates, and the biotinylated CD73 protein (CD73-biotin) was used at a concentration of 0.1 μg/mL.

CD73-ND-P134A = target: T3, CD73-ND-P134A (human, UniProt P21589 27-317); experiment: ELISA, high plateau value (OD 450 nm)
T3 construct: Alanine mutant of CD73-ND
T3 sequence: T2 sequence with P134A, A135Y
Method: as §1, §2

CD73-ND-L133A = target: T4, CD73-ND-L133A (human, UniProt P21589 27-317); experiment: ELISA, high plateau value (OD 450 nm)
T4 construct: Alanine mutant of CD73-ND
T4 sequence: T2 sequence with L133A, A135Y
Method: as §1, §2

CD73-ND-his = target: T5, CD73-ND-his (human, UniProt P21589 27-317); experiment: ELISA; decline multiple of Top against CD73-ND
T5 construct: Biotinylated and captured on streptavidin in the ELISA
T5 sequence: T2 sequence with A135Y
Method: as §1, §2

CD73-ND-T183A = target: T6, CD73-ND-T183A (human, UniProt P21589 27-317); experiment: ELISA; decline multiple of Top against CD73-ND
T6 construct: Alanine mutant of CD73-ND
T6 sequence: T2 sequence with A135Y, T183A
Method: as §1, §2

B1: 48A11-HuV33 (antibody, human IgG4, V domains shown)
VH: QVQLVQSGAEVKKPGASVKVSCKASGYTFTSYWMHWVRQAPGQGLEWIGEINPSIGRTNYNEKFKSRVTLTRDTSTSTAYMELSSLRSEDTAVYYCARRVYGTMDYWGQGTLVTVSS
VL: DIQMTQSPSSLSASVGDRVTITCKASQDINSYLSWFQQKPGKSPKLLIYRANIWVDGVPSRFSGSGSGQDYTFTISSLQPEDIATYYCLQYDELYTFGQGTKVEIK
notes: Humanized
With B1 the binding result (CD73-CD-his) was “no binding (tested: 10 nM)”, the Top (CD73-ND-Y135A) was 1.96 and the Top (CD73-ND-P134A) was 1.97. The Top (CD73-ND-L133A) was 0.922, the “Ratio(Top)” value (CD73-ND-his) was 1 fold and the “Ratio(Top)” value (CD73-ND-T183A) was 1 fold.
